B1: H2-Kb / Ed9 (parent complex)
chain 1: AQSVTQPDARVTVSEGASLQLRCKYSYFGTPYLFWYVQYPRQGLQLLLKYYPGDPVVQGVNGFEAEFSKSNSSFHLRKASVHWSDWAVYFCAVSITGGYKVVFGSGTRLLVSP
chain 2: DSGVVQSPRHIIKEKGGRSVLTCIPISGHSNVVWYQQTLGKELKFLIQHYEKVERDKGFLPSRFSVQQFDDYHSEMNMSALELEDSAMYFCASSPRQSDYTFGSGTRLLVI
chain 3: not shown
chain 4: IQKTPQIQVYSRHPPENGKPNILNCYVTQFHPPHIEIQMLKNGKKIPKVEMSDMSFSKDWSFYILAHTEFTPTETDTYACRVKHDSMAEPKTVYWDRDM
chain 5: SIINFEKL

Variants of: B1
Assay: % of reporter cells activated (NFAT-GFP), raw; note: test concentration or dose not given here

| Variant | ratio to parent |
| --- | --- |
| chain 5 F5W | 1.22 |
| chain 5 F5G | 1.05 |
| chain 5 F5K | 1.09 |
| chain 5 F5P | 0.552 |
| chain 5 F5T | 1.38 |
| chain 5 F5A | 1.33 |
| chain 5 F5C | 1.26 |
| chain 5 F5R | 1.31 |
| chain 5 F5D | 0.945 |
| chain 5 F5I | 1.14 |
| chain 5 K7N | 0.332 |
| chain 5 K7G | 0.473 |
| chain 5 K7F | 0.296 |
| chain 5 K7D | 0.294 |
| chain 5 K7L | 0.719 |
| chain 5 K7H | 0.723 |
| chain 5 K7C | 0.432 |
| chain 5 K7Q | 0.798 |
| chain 5 E6T | 0.702 |
| chain 5 E6I | 0.449 |
| chain 5 E6A | 0.437 |
| chain 5 E6G | 0.597 |
| chain 5 E6R | 0.329 |

| Variant | ratio to parent |
| --- | --- |
| chain 5 E6F | 0.0676 |
| chain 5 E6L | 0.0232 |
| chain 5 E6K | 0.795 |
| chain 5 E6V | 0.409 |
| chain 5 E6P | 0.155 |
| chain 5 I2T | 1.22 |
| chain 5 I2S | 1.18 |
| chain 5 I2C | 1.22 |
| chain 5 I2W | 0.799 |
| chain 5 I2G | 1.06 |
| chain 5 I2A | 1.21 |
| chain 5 I2K | 1 |
| chain 5 I3T | 0.43 |
| chain 5 I3R | 0.385 |
| chain 5 I3W | 0.753 |
| chain 5 I3P | 0.819 |
| chain 5 I3M | 0.914 |
| chain 5 I3Q | 0.728 |
| chain 5 I3N | 0.336 |
| chain 5 I3G | 0.446 |
| chain 5 I3D | 0.484 |
| chain 5 I3K | 0.907 |

Next, values leading:

| ratio to parent | Variant |
| --- | --- |
| 1.08 | chain 5 L8A |
| 0.892 | chain 5 L8E |
| 1.13 | chain 5 L8R |
| 1.14 | chain 5 L8M |
| 0.803 | chain 5 L8D |
| 1.18 | chain 5 L8Q |
| 0.958 | chain 5 L8V |
| 0.969 | chain 5 K7S |
| 0.982 | chain 5 K7R |
| 0.668 | chain 5 K7Y |
| 0.781 | chain 5 K7W |
| 0.0561 | chain 5 N4W |
| 0.0077 | chain 5 N4G |
| 0.41 | chain 5 N4I |
| 0.572 | chain 5 N4R |
| 0.608 | chain 5 N4L |
| 0.364 | chain 5 N4K |
| 0.0572 | chain 5 N4Y |
| 0.294 | chain 5 N4H |
| 0.00718 | chain 5 N4M |
| 0.0443 | chain 5 N4C |
| 0.381 | chain 5 S1T |
| 0.543 | chain 5 S1H |
| 0.126 | chain 5 S1W |
| 0.424 | chain 5 S1K |
| 0.0362 | chain 5 S1Q |
| 0.0181 | chain 5 S1M |
| 0.0209 | chain 5 S1E |
| 0.802 | chain 5 S1Y |
| 0.0383 | chain 5 S1N |
